For 1 molecule, IC50 results are on record in patent publication US20250170227A1 (published 2025).

Broadly, the IC50 is the concentration at which inhibition is half-maximal. High values mean lower potency, low ones higher potency.

Like-named read-outs stand apart in the source and are kept apart here.

In test [1] the target is C1s. In words: C1s activity inhibition.
In test [2] the target is C1s. Description: C1s activity inhibition. The source holds these as a separate data set.

B1: rC1inh (other)
chain: NPNATSSSSQDPESLQDRGEGKVATTVISKMLFVEPILEVSSLPTTNSTTNSATKITANTTDEPTTQPTTEPTTQPTIQPTQPTTQLPTDSPTQPTTGSFCPGPVTLCSDLESHSTEAVLGDALVDFSLKLYHAFSAMKKVETNMAFSPFSIASLLTQVLLGAGENTKTNLESILSYPKDFTCVHQALKGFTTKGVTSVSQIFHSPDLAIRDTFVNASRTLYSSSPRVLSNNSDANLELINTWVAKNTNNKISRLLDSLPSDTRLVLLNAIYLSAKWKTTFDPKKTRMEPFHFKNSVIKVPMMNSKKYPVAHFIDQTLKAKVGQLQLSHNLSLVILVPQNLKHRLEDMEQALSPSVFKAIMEKLEMSKFQPTLLTLPRIKVTTSQDMLSIMEKLEFFDFSYDLNLCGLTEDPDLQVSAMQHQTVLELTETGVEAAAASAISVARTLLVFEVQQPFLFVLWDQQHKFPVFMGRVYDPRA
For the molecule B1, the values for the IC50 in the test with C1s [1] and with C1s [2] were 1.8 nM and 1.7 nM, respectively.
